Here are results for one substance from article PMC2132522.

For test [1], the target named is G-actin (rabbit muscle) (rabbit) (UniProt P68135).
Test [2] has as its target F-actin (rabbit muscle) (rabbit) (UniProt P68135). Briefly: co-sedimentation.
For test [3], the target named is NBD-labeled G-actin (rabbit muscle) (rabbit) (UniProt P68135). Briefly: other fluorescence titration.
Test [4] addresses pyrenyl-labeled F-actin (rabbit muscle) (rabbit) (UniProt P68135). Briefly: other fluorescence titration.

In the case of “Recombinant ADF1 from Arabidopsis thaliana (natural protein)”, the association to barbed ends in low ionic strength F buffer (1 mM MgCl2) in test [1] was determined as 20 fold. Moreover, the stoichiometry N in test [2] is 1. Besides, in test [3], the Kd worked out at 25 nM and the stoichiometry N is 1. Besides, in test [4], the Ka was greater than 1e+06 M⁻¹ and the stoichiometry N was 1.
